{"source": "paper PMC7812859", "about": "“Structure of SARS-CoV-2 ORF8, a rapidly evolving immune evasion protein” (Proceedings of the National Academy of Sciences of the …, 2020)", "target": "the molecule itself", "assay": "crystal structure", "data": [{"protein": "SeMet-labeled V32M/L84M ORF8 double mutant (domain or fragment, selenomethionine (SeMet-labeled), also called ORF8 V32M, L84M double-mutant; SeMet-labeled ORF8 double-mutant protein) QECSLQSCTQHQPYMVDDPCPIHFYSKWYIRVGARKSAPLIELCVDEAGSKSPIQYIDIGNYTVSCMPFTINCQEPKLGSLVVRCSFYEDFLEYHDVRVVLDFI", "values": [{"measurement": "binding result", "result": "binds"}]}]}
